The values below come from publication PMC10690100 (Molecular Cancer Therapeutics, 2023).

Assay [1] deals with recombinant human integrin alpha-v/beta-6 (Homo sapiens, UniProt P06756;P18564). The experiment in a line: ELISA. In general terms: An ELISA detects its analyte on a solid surface through an enzyme-linked reagent.
Assay [2] addresses recombinant human integrin alpha-v/beta-1 (Homo sapiens, UniProt P06756;P05556). The experiment in a line: ELISA.
The target in assay [3] is recombinant human integrin alpha-v/beta-3 (Homo sapiens, UniProt P06756;P05106). The experiment in a line: ELISA.
The target in assay [4] is recombinant human integrin alpha-v/beta-5 (Homo sapiens, UniProt P06756;P18084). In words: ELISA.
Assay [5] addresses recombinant human integrin alpha-v/beta-8 (Homo sapiens, UniProt P06756;P26012). The experiment in a line: ELISA.
Assay [6] concerns the target human integrin beta-6 on 293F:hu beta-6 transfected cells (Homo sapiens, UniProt P06756;P18564). The experiment in a line: flow cytometry on cells. Background: In flow cytometry, cells or beads pass a laser one at a time.

Chain of recombinant human integrin alpha-v/beta-5 (P06756 31-1048, chain 1 of 2): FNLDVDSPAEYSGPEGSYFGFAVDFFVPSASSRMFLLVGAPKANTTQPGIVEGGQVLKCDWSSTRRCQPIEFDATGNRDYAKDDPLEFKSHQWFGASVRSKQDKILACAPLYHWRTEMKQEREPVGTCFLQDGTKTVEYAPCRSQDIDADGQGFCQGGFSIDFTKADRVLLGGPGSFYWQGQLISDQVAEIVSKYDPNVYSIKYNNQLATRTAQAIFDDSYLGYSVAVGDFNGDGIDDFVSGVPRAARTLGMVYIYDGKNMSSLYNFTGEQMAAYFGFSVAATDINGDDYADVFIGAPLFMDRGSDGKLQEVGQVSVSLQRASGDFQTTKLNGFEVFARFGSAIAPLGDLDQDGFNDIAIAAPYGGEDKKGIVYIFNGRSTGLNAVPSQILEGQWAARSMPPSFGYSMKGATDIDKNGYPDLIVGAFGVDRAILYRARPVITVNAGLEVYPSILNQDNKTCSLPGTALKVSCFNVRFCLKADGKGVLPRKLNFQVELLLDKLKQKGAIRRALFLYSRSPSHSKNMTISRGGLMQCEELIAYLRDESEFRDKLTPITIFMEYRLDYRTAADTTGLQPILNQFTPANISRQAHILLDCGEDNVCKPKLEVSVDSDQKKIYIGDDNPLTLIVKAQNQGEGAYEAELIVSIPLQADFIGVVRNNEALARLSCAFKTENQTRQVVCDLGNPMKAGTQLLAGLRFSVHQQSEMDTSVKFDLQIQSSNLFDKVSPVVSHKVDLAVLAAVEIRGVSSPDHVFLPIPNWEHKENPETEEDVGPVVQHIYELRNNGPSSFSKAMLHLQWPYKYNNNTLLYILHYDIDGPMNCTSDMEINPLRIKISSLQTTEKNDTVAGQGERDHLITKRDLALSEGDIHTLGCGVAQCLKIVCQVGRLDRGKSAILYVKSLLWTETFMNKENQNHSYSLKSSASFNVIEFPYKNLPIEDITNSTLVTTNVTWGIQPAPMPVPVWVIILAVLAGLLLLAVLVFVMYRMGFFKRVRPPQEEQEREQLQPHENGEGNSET
Chain of recombinant human integrin alpha-v/beta-5 (P18084 24-719, chain 2 of 2): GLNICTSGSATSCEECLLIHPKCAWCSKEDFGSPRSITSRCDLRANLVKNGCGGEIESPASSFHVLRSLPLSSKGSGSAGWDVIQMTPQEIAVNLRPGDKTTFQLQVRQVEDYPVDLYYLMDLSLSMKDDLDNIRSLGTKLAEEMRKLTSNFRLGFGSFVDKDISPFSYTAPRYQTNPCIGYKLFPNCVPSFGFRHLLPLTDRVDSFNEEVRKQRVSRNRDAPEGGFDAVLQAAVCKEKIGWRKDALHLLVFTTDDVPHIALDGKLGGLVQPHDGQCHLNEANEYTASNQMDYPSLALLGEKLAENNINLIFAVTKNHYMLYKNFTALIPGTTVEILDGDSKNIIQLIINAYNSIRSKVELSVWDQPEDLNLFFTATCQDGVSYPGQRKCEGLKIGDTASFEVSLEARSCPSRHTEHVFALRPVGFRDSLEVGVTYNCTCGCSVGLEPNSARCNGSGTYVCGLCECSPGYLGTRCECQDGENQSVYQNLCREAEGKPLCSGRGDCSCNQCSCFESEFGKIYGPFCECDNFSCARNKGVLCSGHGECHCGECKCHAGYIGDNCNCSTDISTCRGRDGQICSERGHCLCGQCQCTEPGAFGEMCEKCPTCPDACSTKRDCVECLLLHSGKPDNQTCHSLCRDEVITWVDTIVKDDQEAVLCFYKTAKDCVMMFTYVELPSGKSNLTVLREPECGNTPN
Chain of recombinant human integrin alpha-v/beta-6 (P06756 31-1048, chain 1 of 2): as the sequence (P06756 31-1048, chain 1 of 2) above
Chain of recombinant human integrin alpha-v/beta-6 (P18564 22-709, chain 2 of 2): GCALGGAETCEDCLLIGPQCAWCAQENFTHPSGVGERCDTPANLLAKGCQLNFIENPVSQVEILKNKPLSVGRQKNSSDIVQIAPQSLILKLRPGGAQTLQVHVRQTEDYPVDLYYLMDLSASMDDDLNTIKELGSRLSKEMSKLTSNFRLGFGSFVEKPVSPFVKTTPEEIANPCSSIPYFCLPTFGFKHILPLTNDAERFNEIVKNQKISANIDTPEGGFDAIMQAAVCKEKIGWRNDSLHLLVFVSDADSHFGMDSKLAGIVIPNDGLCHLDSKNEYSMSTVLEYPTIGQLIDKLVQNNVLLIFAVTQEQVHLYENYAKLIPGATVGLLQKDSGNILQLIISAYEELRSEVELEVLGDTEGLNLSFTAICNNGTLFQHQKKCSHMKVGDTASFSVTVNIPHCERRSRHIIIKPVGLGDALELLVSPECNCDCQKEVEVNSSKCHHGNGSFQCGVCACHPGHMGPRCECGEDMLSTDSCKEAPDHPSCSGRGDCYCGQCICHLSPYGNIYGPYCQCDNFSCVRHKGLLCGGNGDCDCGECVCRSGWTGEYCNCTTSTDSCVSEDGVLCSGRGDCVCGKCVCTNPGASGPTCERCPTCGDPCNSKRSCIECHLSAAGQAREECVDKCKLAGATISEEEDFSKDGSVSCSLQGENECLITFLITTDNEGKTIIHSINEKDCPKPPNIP
Chain of recombinant human integrin alpha-v/beta-3 (P06756 31-1048, chain 1 of 2): as the sequence (P06756 31-1048, chain 1 of 2) above
Chain of recombinant human integrin alpha-v/beta-3 (P05106 27-718, chain 2 of 2): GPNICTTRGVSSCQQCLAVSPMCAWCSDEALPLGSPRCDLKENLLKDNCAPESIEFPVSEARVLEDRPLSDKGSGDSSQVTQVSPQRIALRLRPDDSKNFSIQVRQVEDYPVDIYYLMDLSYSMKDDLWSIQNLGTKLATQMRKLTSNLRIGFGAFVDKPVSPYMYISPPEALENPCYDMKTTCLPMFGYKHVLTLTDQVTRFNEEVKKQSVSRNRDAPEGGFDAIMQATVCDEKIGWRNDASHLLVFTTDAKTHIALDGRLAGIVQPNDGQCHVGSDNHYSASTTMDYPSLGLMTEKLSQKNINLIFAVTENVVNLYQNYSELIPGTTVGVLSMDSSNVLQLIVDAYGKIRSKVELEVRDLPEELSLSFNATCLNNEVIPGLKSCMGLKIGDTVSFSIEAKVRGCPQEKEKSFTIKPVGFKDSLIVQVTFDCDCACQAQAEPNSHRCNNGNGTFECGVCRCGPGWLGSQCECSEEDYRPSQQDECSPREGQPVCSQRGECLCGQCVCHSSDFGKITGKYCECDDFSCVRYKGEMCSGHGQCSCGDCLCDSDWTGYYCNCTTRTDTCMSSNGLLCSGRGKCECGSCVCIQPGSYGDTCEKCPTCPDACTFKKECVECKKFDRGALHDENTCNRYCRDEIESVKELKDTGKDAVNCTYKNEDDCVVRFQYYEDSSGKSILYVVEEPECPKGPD
Chain of recombinant human integrin alpha-v/beta-8 (P06756 31-1048, chain 1 of 2): as the sequence (P06756 31-1048, chain 1 of 2) above
Chain of recombinant human integrin alpha-v/beta-8 (P26012 43-684, chain 2 of 2): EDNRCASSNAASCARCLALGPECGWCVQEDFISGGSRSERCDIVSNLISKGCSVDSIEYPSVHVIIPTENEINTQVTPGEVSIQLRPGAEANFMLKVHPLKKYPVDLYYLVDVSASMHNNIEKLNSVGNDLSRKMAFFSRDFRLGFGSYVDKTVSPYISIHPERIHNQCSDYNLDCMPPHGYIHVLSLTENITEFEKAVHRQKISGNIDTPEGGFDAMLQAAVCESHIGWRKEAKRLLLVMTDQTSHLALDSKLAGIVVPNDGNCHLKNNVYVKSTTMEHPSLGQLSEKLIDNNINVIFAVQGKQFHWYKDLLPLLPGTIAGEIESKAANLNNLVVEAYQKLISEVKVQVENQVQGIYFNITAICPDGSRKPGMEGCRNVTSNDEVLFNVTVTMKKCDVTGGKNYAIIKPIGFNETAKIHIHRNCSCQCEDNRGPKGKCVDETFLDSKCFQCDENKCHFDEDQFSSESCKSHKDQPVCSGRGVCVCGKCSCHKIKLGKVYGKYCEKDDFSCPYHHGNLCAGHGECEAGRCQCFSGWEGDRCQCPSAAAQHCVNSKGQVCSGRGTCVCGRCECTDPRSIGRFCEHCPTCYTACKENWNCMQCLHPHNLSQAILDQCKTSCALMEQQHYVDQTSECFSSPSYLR
Chain of recombinant human integrin alpha-v/beta-1 (P06756 31-1048, chain 1 of 2): as the sequence (P06756 31-1048, chain 1 of 2) above
Chain of recombinant human integrin alpha-v/beta-1 (P05556 21-728, chain 2 of 2): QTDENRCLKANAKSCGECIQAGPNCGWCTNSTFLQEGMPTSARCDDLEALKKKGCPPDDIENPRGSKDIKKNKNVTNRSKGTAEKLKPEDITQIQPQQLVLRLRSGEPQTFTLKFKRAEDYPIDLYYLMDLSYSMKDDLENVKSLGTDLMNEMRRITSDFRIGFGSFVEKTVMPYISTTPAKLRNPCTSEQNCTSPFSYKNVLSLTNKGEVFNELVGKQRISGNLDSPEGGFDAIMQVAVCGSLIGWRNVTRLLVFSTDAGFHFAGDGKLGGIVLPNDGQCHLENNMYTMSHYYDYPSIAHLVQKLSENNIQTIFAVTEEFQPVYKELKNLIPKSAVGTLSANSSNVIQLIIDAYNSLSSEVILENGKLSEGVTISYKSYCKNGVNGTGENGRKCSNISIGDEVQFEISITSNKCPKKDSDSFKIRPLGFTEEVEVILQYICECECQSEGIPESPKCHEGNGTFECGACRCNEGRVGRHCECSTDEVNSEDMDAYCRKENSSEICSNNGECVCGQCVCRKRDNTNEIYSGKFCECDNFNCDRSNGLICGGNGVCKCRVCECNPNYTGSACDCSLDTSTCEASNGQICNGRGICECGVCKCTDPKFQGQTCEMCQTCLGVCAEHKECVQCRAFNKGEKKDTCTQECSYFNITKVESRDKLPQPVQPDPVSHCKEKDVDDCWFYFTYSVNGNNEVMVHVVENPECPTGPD

B1: SGN-B6A (h2A2 conjugated to the vedotin drug-linker) (antibody, V domains shown)
VH: QFQLVQSGAEVKKPGASVKVSCKASGYSFTDYNVNWVRQAPGQGLEWIGVINPKYGTTRYNQKFKGRATLTVDKSTSTAYMELSSLRSEDTAVYYCTRGLNAWDYWGQGTLVTVSS
VL: DIQMTQSPSSLSASVGDRVTITCGASENIYGALNWYQQKPGKAPKLLIYGATNLEDGVPSRFSGSGSGRDYTFTISSLQPEDIATYYCQNVLTTPYTFGQGTKLEIK
Broadly, the EC50 is the concentration giving half of the maximal effect. With B1, the concentration for a half-maximal effect (EC50) in assay [1] came out at 0.9 nM. For the same molecule, the binding result in assay [2], in assay [3], in assay [4] and in assay [5] was “no binding” each time.

B2: h2A2 (humanized 2A2 anti-integrin beta-6 antibody) (antibody, V domains shown)
VH: B1 VH
VL: B1 VL
Consider B2, for which the EC50 in assay [6] came to 0.3 nM; in assay [1], 0.7 nM. For the same molecule, the binding result in assay [2], in assay [3], in assay [4] and in assay [5] was “no binding” each time.
